Changes are numbered by the printed parent chain.
B1: ADI-15662 (antibody, V domains shown)
VH: QVQLQESGPGLVKPSETLSLTCTVSGGSVSRGSYYWTWIRQPPGKGLEWIGYIYYSGSTNYNPSLKSRVTISVDTSKNQFSLKLSSVTAADTAVYYCARDIGEDKYGTYYGMDVWGQGTTVTVSS
VL: EIVMTQSPATLSLSPGERATLSCRASQSVSSSLAWYQQKPGQAPRLLIYGASNRATGIPARFSGSGSGTDFTLTISSLEPEDFAVYYCQQRTNWPPVTFGPGTKVEIK
notes: IgG
B2: ADI-15609 (antibody, V domains shown)
VH: EVQLLESGGGVVQPGRSLKLSCAASGFSFTTDVMHWIRQAPGKGLEWVAVISTDGANSYYAESVKGRFTISRDNSKNTLFLQMSSLRAEDTAVYYCASQGYHYVNMADVGVPSFDHWGQGTLVTVSS
VL: ETTLTQSPSSLSASVGDRVTITCRARRSIDNYLNWYQHKPGTAPKLLIYAVSSLPSGVPSRFSGSGSGADFTLTISSLQPEDLATYYCQQSYMTPPTFGQGTKLEIK
notes: IgG
B3: ADI-15632 (antibody, V domains shown)
VH: QVQLVQSGGGLVQPGRSLRLSCTASGFSFSDYGVTWVRQAPGKGLEWIGFVRTKGYGGTTEYAASVRGRFTISRDDSKSVAYLQLNSLKVEDTAVYYCSGASRGFWSGPTYYYFGMDVWGHGTTVTVSS
VL: EIVLTQSPLSLAVTPGEPASISCRSSQSLLHGNGYNYLDWYLQKPGQSPQLLIFWGSYRASGAPDRFSASGSGSEFTLKIRRVEAEDVGVYYCMQPLQTTFGQGTKVDIK
notes: IgG; also called Antibody Number 197
B4: ADI-15596 (antibody, V domains shown)
VH: EVQLVESGGALVKPGGSLRLSCVGTGLTFTTAYMSWARQAPGKGLEWVGRILSKSDGGTTDYPTPVKGRFTISRDESKNTLYLQMNSLKIEDTAVYYCTTDRGITARPIFDSWGQGTLVTVSS
VL: QSVLTQPPSVSGALGRRVTISCTGSSSNIGAGYDVHWYRQLPGTAPKLLIYGNTKRPSGVPDRFSGSKYATSASLAITGLQADDDADYYCQSYDGGLSGYVFGTGTKVTVL
notes: IgG
B5: ADI-15644 (antibody, V domains shown)
VH: QVQLVQSGAEVKKPGSSVKVSCRTSGGTFSSFSISWVRQAPGQGLEWMGGIIPIFGTANYAKKFQGRVTITADESTDTAYMELRSLRSEDTAVYYCARDSPKISATEYYFDYWGQGTLVTVSS
VL: DIQVTQSPSTLSASVGDRVTITCRASQSFTSWLAWYQQKPGKAPKLLIYKASTLDSGVPSRFSGSGSGTEFTLTINGLQPDDFATYYCQHYDSYSGTFGQGTRLEIK
notes: IgG
B6: ADI-15628 (antibody, V domains shown)
VH: QVQLVQSGGGVVQPGRSLRLSCAASGFTFSDFSMHWVRQAPGKGLEWVALISNDGSNKYYSDSLKGSFIISRDNSKNTLYLQLNSLGAEDTALYYCARDAVPHYDYVWGNFDYWGPGTLVTVSS
VL: QPVLTQPASVSASPGQSITISCTGTSSDVGGYNYVSWYQQHPGKAPKLIVYEVSNRPSGVSNRFSGSKSGNTASLTISGLQADDEADYYCSSYTSFTPVVFGGGTKVTVL
notes: IgG
B7: ADI-15652 (antibody, V domains shown)
VH: B6 VH with Q1E, V5L, Q6E, P116Q
VL: B6 VL with P2S, V50I, V107L
notes: IgG
B8: ADI-15610 (antibody, V domains shown)
VH: EVQLLESGAEVKKPGSSVKVSCKASGGTFSSYAITWVRQAPGQGLEWMGGIIPILGTTTYAQRFQGRVTITADKSTTTAYMELSRLRSEDTAVYYCAKTVSQYPNTYNYGMDVWGQGTTVTVSS
VL: EIVMTQSPSSLSASVGDRVTITCRASQSVSIYLNWYQQKPGKTPELLIYGASRLQSGVPSRFSGSGSGTDFTLTISSLQPEDFATYYCLQTYSTPLTFGQGTKVEIK
notes: IgG; also called Antibody Number 175
B9: ADI-15617 (antibody, V domains shown)
VH: EVQLVESGGGLVQPGGSLRISCAASGFSISSHAVSWVRQAPGKGLEWVSVISGSGGDTHSVVQGRGSGTYYADSVKGRFTISRDNVRNTVYLQMNSLRVEDTAVYYCAKDDPTLFWSGSGYYGMDVWGQGTTVTVSS
VL: DIRVTQSPSSLSASVGDRVTITCQASQGISDSLNWYQQKPGKAPKLLIYGASKLEPGVSSRFSGRGSGRDFTFTISSLQPEDIGTYYCQQYDNLPLTFGPGTKLEIK
notes: IgG; also called Antibody Number 182
B10: ADI-15653 (antibody, V domains shown)
VH: QVQLVQSGAEVKKPGSSVKVSCKSSGGTFSNYIISWVRQAPGQGLEWMGGIVPLSGTTDYAQKFQGRVTITADKSTTTAYMELRTLRPEDTAVYYCARGSGGSNAYFDPWGQGTLVTVSS
VL: QSVVTQPPSVSVAPGKTAKITCGGNNIGSKSVYWYQQKPGQAPVLVMYYDTYRPSGIPERFSGSNSGNSATLTISRVDAGDEADYYCQVWDSRSDHPYVFGSGTKLTVL
notes: IgG
B11: ADI-15602 (antibody, V domains shown)
VH: EVQLLESGGGVVQPGKSLRLSCVASGFTFGDYGMHWVRQAPGKGLEWVAVISDGGSTKYYADSVKGRFTIARDNSKNTLNLQMNSLRAEDTAVYYCAKDLAWIFGLGASYMDVWGQGTLVTVSS
VL: DIQLTQSPGTLSLSPGERATLSCRASQTVSSSYLAWYQQKPGQAPRLLIYDASSRATGIPDRFSGSGSGTDFTLTISRLEPEDFAVYYCQQYGSSPFGLTFGGGTKVEIK
notes: IgG
B12: ADI-15654 (antibody, V domains shown)
VH: QVQLVQSGAEVKRPGSSVKVSCKASGGTSSSYIISWVRQAPGQGLEWMGGIIPIPISGAPTYAQKFQGRANYAQKFEGRLTITADRLTSTAYMELSSLTSEDTAVYYCVRDERNGGYWGQGTLVTVSS
VL: QSALTQPASVSGSPGQSITISCTGTSNDVGAYNHVSWYQQHPGKAPKLMIYDVTNRPSGVSNRFSGSKSGNTASLTIFGLQTDDEADYYCSSYTISSTLVFGGGTQLTVL
notes: IgG; also called Antibody Number 218
B13: ADI-15666 (antibody, V domains shown)
VH: QVQLQQWGAGLLKPSETLSLTCGVSDGSFSAYYWNWIRQSPGKGLEWIGETNPSENTNYSPSLKNRVTISADRSANQFSLRLRSVTAADTGVYYCARGRGYYGSTTDYRGLHWFDPWGQGTLVTVSS
VL: ETTLTQSPVTLSVSPGERATLSCRASQSVSFNLAWYQQKPGQAPRLLIYGASTRVTNLPLRFSGSGSGTEFTLTISSLQSEDFAVYYCQQYNNWPRTFGQGTKLEIK
notes: IgG; also called Antibody Number 230
B14: ADI-15663 (antibody, V domains shown)
VH: QVQLVQSGGGLVKPGGSLRLSCAASGFTFSSYTMNWVRQAPGKGLEWVSSITGGSSFTNYADSLEGRFTISRDNAKSSLFLQMNSLRVEDTAVYYCARDQPGTIFGVVQDYWGQGTLVTVSS
VL: QSVLTQPPSVSGAPGQRVTISCTGGSSNIGAGYDVHWYQQLPGTAPKLLIYGNSNRPSGVPDRFSGSKSGTSASLAITGLQAEDEADYYCQSYDSRLSVVFGGGTKVTVL
notes: IgG
B15: ADI-15604 (antibody, V domains shown)
VH: EVQLLESGGGLVKPGGSLRLSCGASGFKFSDYYMSWIRQAPGKGLEWVSHISSSNSYINYADSVKGRFTISRDNARNSLSLQMNSLRAEDTAVYYCARFPLYCSRSSCSHYVDYWGQGTLVTVSS
VL: B14 VL with G25S, S26G, G52D, S54N, A82V, S95R, R96S
notes: IgG; also called Antibody Number 170
B16: ADI-15603 (antibody, V domains shown)
VH: QVQLVQSGGGLVQPGGSLRLSCAASGFTFGRHAMTWVRQAPGKGLEWVAGITATGDPTYYPDSVKGRFAVSRDNSRNTLYLQMDSLRVEDTALYYCARSWDDYGDLDWYFALWGRGTMVTVSS
VL: EIVMTQSPAILSVSPGERATLSCRASQSVSSSLAWYQQKPGQAPRLLIYGASTRATGIPPRFSGSGSGTQFTLTISSLQSEDVAVYYCQQYSDWPPLTFGGGTKVEIK
notes: IgG
B17: ADI-15606 (antibody, V domains shown)
VH: B16 VH with Q1E, V5L, Q6E, G30R, H32Y, G50A, P57T, V88A, R98K, M118L
VL: B16 VL with E1D, V83F
notes: IgG
B18: ADI-15578 (antibody, V domains shown)
VH: QVQLVQSGGGLVQPGGSLRLSCVGSGFTFSTYSMNWVRQAPGKGLEWVSHISSSSVTMYYADFVKGRFTISRDNAKNSLYLQMTSLRAEDTAVYYCARDAGPVWSGYYDYGMDVWGQGTTVTVSS
VL: B1 VL with I2T, V3T, M4L, S32L, Y49F, G50D, N53K, T92Y, V97L, P101G
notes: IgG

What follows are binders tested against RSV F protein of subtype A strain A2, on virus (respiratory syncytial virus subtype A …, UniProt P03420 26-574) (assay: cell-based or functional assay).

Binder	Neut IC50 (ug/ml) subtype A [µg/mL]
B1	6.25
B2	0.022
B3	1.42
B4	4.48
B5	> 10
B6	0.014
B7	0.012
B8	0.727
B9	0.022
B10	> 10
B11	0.046
B12	3.76
B13	1.41
B14	0.003
B15	0.081
B16	0.795
B17	> 10

These binders were tested against RSV F protein of subtype B strain 18537, on virus (respiratory syncytial virus subtype B …, UniProt P13843 26-574) (assay: cell-based or functional assay).

Binder	Neut IC50 (ug/ml) subtype B [µg/mL]
B1	> 10
B2	> 10
B3	5.72
B4	> 10
B5	> 10
B6	0.034
B7	0.036
B8	> 10
B9	0.038
B10	> 10
B11	0.015
B12	3.27
B13	> 10
B14	0.019
B15	0.082
B16	0.273
B17	0.802

The binders below were run against T1, postfusion RSV F ectodomain, subtype B (respiratory syncytial virus subtype B) (assay: BLI, IgG on sensor).
T1 construct: extracellular domain; also called Postfusion subtype B
Experimental: (§1) IgG binding to DS-Cav1 and FA FP was determined by BLI measurements using a FortéBio Octet HTX instrument (Pall Life Sciences). […] Data was analyzed using the ForteBio Data Analysis Software 7. The data was fit to a 1:1 binding model to calculate an association and dissociation rate, and KD was calculated using the ratio kd/kₐ.

Binder	Kd [nM]
B18	1.54
B5	0.194
B10	0.39
B13	0.546
B15	1.77
B16	11.9
B17	5.89

These binders were tested against T2, prefusion-stabilized RSV F ectodomain (DS-Cav1), subtype B (respiratory syncytial virus subtype B) (assay: BLI, IgG on sensor).
T2 construct: extracellular domain; also called Prefusion subtype B
Experimental: as §1

Binder	Kd [nM]
B2	0.628
B3	29.4
B4	47.5
B6	0.659
B7	0.377
B9	0.71
B11	0.807
B12	4.47
B14	0.287
B15	0.46
B16	6.97
B17	5.75

Each binder was assayed against T3, postfusion RSV F ectodomain (F ΔFP), subtype A (respiratory syncytial virus subtype A, UniProt P03420 26-109; P03420 147-524) (assay: BLI, IgG on sensor).
T3 construct: extracellular domain; also called Postfusion subtype A
Experimental: as §1

Binder	Kd [nM]	binding result
B1	3.09	–
B18	1.27	–
B3	2.25	–
B5	0.301	–
B6	2.47	–
B7	4.98	–
B8	0.417	–
B9	–	no binding (tested: BLI response <0.05 nm)
B10	0.312	–
B12	–	no binding (tested: BLI response <0.05 nm)
B13	0.499	–
B14	2.32	–
